Source: US12545745B2, “Method for treating a degenerative neurological disorders comprising administering ASM inhibitor” (KYUNGPOOK NATIONAL UNIVERSITY INDUSTRY-ACADEMIC COOPERATION …, priority 2013, dated 2026)

Key:
[1] = system: astrocytes and microglia; assay: Neuroinflammation in brain of APP/PS1 mice (GFAP, Iba-1 staining, cytokine real-time PCR); assay type: in vivo, mouse; conditions: cerebral medulla and hippocampus, vs PBS
Experimental: After fixing the cerebral and hippocampal tissues of the mice, 0.5% thioflavin S (Sigma-Aldrich), anti-20G10 antibodies (mouse, 1:1000) against Aβ42, anti-G30 antibodies (rabbit, […]) against Aβ40, anti-GFAP antibodies (rabbit, 1:500, DAKO), or anti-Iba-1 antibodies (rabbit, 1:500, Wako) were co-cultured. The tissues were analyzed using a laser scanning confocal microscope equipped with Fluoview SV1000 imaging software (Olympus FV1000, Japan) or an Olympus BX51 microscope. Percentage of stained area to total tissue area was quantified and analyzed using Metamorph software (Molecular Devices).
To quantify the expression levels of inflammatory cytokines (TNF-α, […] and IL-6), real-time quantitative PCR was used. […] Also, using Corbett research RG-6000 real-time PCR instrument, real-time quantitative PCR was performed with repeated 40 cycle (one cycle consisting of 95° C., 10 minutes; 95° C., 10 seconds; 58° C., 15 seconds; 72° C., 20 seconds). […]
After fixing the mouse brain and hippocampus, 0.5% thioflavin S (Sigma-Aldrich), anti-GFAP (rabbit, 1:500, DAKO), and anti-Iba-1 (rabbit, 1:500, WAKO) were co-cultured together. The regions were analyzed using a laser scanning confocal microscope equipped with Fluoview SV1000 imaging software (Olympus FV1000, Japan) or an Olympus BX51 microscope. […]

[2] = system: depression-induced animal model (WT/RSD); assay: Depression behaviour tests (Open field, Dark & Light, Tail suspension, Force swim) in RSD mice; assay type: in vivo, mouse; conditions: 50 mg/kg i.p. twice weekly, vs PBS, FIG. 59A-59D
Experimental: For depression-induced animal model, C57BL/6 mice (Charles River, UK) were used as those with depression by inducing Repeated Social Defeat (RSD) stress for 10 days. Repeated Social Defeat (RSD) stress was induced by placing two male, 6-8 week-old C57BL/6 mice with one male, 6-8 week-old CD-1 mouse (aggressive intruder mouse) in the same cage for 10 days, 2 hours daily. After 10 days, depression of C57BL/6 mice was confirmed through the depression behavior test. To confirm the therapeutic effect of ASM inhibitor (Smpd1 miR RNAi) in the depressed animal model, 6-week-old male C57BL/6 mice were injected with said ASM inhibitor via tail vein injection twice weekly in a dosage of 50 μg/mice for 4 weeks prior to the induction of depression. Four weeks later, behavioral analysis was performed after inducing Repeated Social Defeat (RSD) stress for 10 days, followed by obtaining plasma samples of the mice (FIG. 47A). To determine whether ASM inhibition by Smpd1 miR RNAi injection leads to the improvement of depression in a depression-induced animal model, an Open field test, a Dark & Light test, a Tail suspension test and Force swim test were performed, respectively. For depression-induced animal model, C57BL/6 mice (Charles River, UK) were used as those with depression by inducing Repeated Social Defeat (RSD) stress for 10 days. […]

B1: ASM-ab 23A12C3: self-made monoclonal ASM antibody, Koma biotech; heavy chain SEQ ID NO. 29, light chain SEQ ID NO. 30 (antibody)
heavy: MGWSWIFLFLLSGTAGVHSEVQLQQSGPVLVKPGASVKMSCKASGYTFTDYYMNWVKQSHGKSLEWIGVINPYNDGTSYNQKFKGKATLTVDKSSSTAYMELNSLTSEDSAVYYCAREKLYYYGRDYAMDYWGQGTSVTVSSAKTTPPSVYPLAPGSAAQTNSMVTLGCLVKGYFPEPVTVTWNSGSLSSGVHTFPAVLQSDLYTLSSSVTVPSSTWPSQTVTCNVAHPASSTKVDKKIVPRDCGCKPCICTVPEVSSVFIFPPKPKDVLTITLTPKVTCVVVDISKDDPEVQFSWFVDDVEVHTAQTKPREEQINSTFRSVSELPIMHQDWLNGKEFKCRVNSAAFPAPIEKTISKTKGRPKAPQVYTIPPPKEQMAKDKVSLTCMITNFFPEDITVEWQWNGQPAENYKNTQPIMDTDGSYFVYSKLNVQKSNWEAGNTFTCSVLHEGLHNHHTEKSLSHSPGK
light: MSSAQFLGLLLLCFQGTRCDIQMTQTTSSLSASLGDRVTISCRSSQDISNYLNWCQQKPDGTVKLLIYYTSRLHSGVPSRFSGSGSGTDYSLTISNLEQEDIATYFCQQDNTLPYTFGGGTKLEIKRADAAPTVSIFPPSSEQLTSGGASVVCFLNNFYPKDINVKWKIDGSERQNGVLNSWTDQDSKDSTYSMSSTLTLTKDEYERHNSYTCEATHKTSTSPIVKSFNRNEC
modifications: 23A12C3_Heavy chain; 23A12C3_Light chain
notes: self-made monoclonal ASM antibody, Koma biotech; 30
In the case of B1, the “activity of microglia (Iba-1)” value ([1]; FIG. 54A) is reported as “significantly reduced”, the “activity of astrocytes (GFAP)” value ([1]; FIG. 54B) is reported as “significantly reduced” and the symptoms of depression [2] is reported as “significantly improve”.
